Paper PMC10786891, “Massively parallel profiling of RNA-targeting CRISPR-Cas13d”

T1: EsCas13d, nuclease-dead (Eubacterium siraeum, UniProt B0MS50, R295A;H300A;R849A;H854A)
T1 sequence: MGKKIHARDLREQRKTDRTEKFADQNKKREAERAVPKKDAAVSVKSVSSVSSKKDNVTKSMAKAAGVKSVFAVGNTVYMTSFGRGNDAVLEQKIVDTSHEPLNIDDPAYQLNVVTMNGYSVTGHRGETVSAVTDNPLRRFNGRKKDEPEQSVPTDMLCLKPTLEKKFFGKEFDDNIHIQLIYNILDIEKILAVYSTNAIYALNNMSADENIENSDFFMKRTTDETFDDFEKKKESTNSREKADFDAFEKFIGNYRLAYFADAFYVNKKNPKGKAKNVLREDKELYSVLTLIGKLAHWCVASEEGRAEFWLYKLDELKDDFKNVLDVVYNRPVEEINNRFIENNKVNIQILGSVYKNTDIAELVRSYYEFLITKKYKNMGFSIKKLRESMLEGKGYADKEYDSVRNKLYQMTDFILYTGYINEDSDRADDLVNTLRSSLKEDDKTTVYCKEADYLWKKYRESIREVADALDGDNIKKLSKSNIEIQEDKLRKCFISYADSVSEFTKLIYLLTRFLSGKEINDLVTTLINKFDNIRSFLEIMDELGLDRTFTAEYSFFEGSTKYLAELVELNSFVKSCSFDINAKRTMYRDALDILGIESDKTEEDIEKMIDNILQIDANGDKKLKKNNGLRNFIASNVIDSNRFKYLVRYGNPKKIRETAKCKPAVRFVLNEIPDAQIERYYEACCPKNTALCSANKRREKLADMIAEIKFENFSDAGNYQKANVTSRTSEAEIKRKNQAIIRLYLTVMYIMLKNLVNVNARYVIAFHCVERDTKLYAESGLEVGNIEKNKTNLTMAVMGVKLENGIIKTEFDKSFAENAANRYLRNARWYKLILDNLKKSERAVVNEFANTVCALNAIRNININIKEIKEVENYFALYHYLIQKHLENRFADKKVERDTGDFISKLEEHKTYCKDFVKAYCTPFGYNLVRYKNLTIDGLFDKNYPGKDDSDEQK


Target: T1, EsCas13d, nuclease-dead
Assay: crRNA (strand 1, pre-loaded); Mg2+; 40 mM Tris-HCl pH 7.5, 150 mM NaCl, 6 mM MgCl2, 1 mM DTT, 0.1% Tween-20, 0.2 mg/ml BSA; 25 C; 10 min per concentration, then washed
Settings: tags: His6-TwinStrep-SUMO cleaved; N-terminal SNAP kept (SNAP-Surface 488); label: 3' end held by stalled T7 RNA polymerase

Binder | Kd [nM]
target 1 insA 3' of 12,insG 3' of 11 (mixed) RNA 1: CACCCGUGCAAAAAUGCAGGGGUCUAAAACUGAGCGGAUAACCUCUCUAUGG RNA 2: GGGAAUGGAUCCACAUCUACGAAUUCGUACCAUAGAGAGGAUGUAUCCGCUCACCGAGAUCGGAAGAGCACACGU | 49 ± 6
target 1 U3G,U19C (mixed) RNA 1: CACCCGUGCAAAAAUGCAGGGGUCUAAAACUGAGCGGAUAACCUCUCUAUGG RNA 2: GGGAAUGGAUCCACAUCUACGAAUUCGUACCACAGAGAGGUUAUCCGCGCACCGAGAUCGGAAGAGCACACGU | 25.1 ± 3.4
target 1 G17C,C21U (mixed) RNA 1: CACCCGUGCAAAAAUGCAGGGGUCUAAAACUGAGCGGAUAACCUCUCUAUGG RNA 2: GGGAAUGGAUCCACAUCUACGAAUUCGUACUAUACAGAGGUUAUCCGCUCACCGAGAUCGGAAGAGCACACGU | 7.6 ± 0.7
target 1 del3,del15 (mixed) RNA 1: CACCCGUGCAAAAAUGCAGGGGUCUAAAACUGAGCGGAUAACCUCUCUAUGG RNA 2: GGGAAUGGAUCCACAUCUACGAAUUCGUACCAUAGAAGGUUAUCCGCCACCGAGAUCGGAAGAGCACACGU | 30.2 ± 3.3
target 1 insC 3' of 5,insA 3' of 5 (mixed) RNA 1: CACCCGUGCAAAAAUGCAGGGGUCUAAAACUGAGCGGAUAACCUCUCUAUGG RNA 2: GGGAAUGGAUCCACAUCUACGAAUUCGUACCAUAGAGAGGUUAUCCGCACUCACCGAGAUCGGAAGAGCACACGU | 11.5 ± 0.5
target 1 A20C,C21G (mixed) RNA 1: CACCCGUGCAAAAAUGCAGGGGUCUAAAACUGAGCGGAUAACCUCUCUAUGG RNA 2: GGGAAUGGAUCCACAUCUACGAAUUCGUACGCUAGAGAGGUUAUCCGCUCACCGAGAUCGGAAGAGCACACGU | 57 ± 26
target 1 C6G,A20C (mixed) RNA 1: CACCCGUGCAAAAAUGCAGGGGUCUAAAACUGAGCGGAUAACCUCUCUAUGG RNA 2: GGGAAUGGAUCCACAUCUACGAAUUCGUACCCUAGAGAGGUUAUCGGCUCACCGAGAUCGGAAGAGCACACGU | 36 ± 6
target 1 insA 3' of 15,insU 3' of 14 (mixed) RNA 1: CACCCGUGCAAAAAUGCAGGGGUCUAAAACUGAGCGGAUAACCUCUCUAUGG RNA 2: GGGAAUGGAUCCACAUCUACGAAUUCGUACCAUAGAGAAUGGUUAUCCGCUCACCGAGAUCGGAAGAGCACACGU | 21.1 ± 1.8
target 1 insC 3' of 19,insC 3' of 19 (mixed) RNA 1: CACCCGUGCAAAAAUGCAGGGGUCUAAAACUGAGCGGAUAACCUCUCUAUGG RNA 2: GGGAAUGGAUCCACAUCUACGAAUUCGUACCAUCCAGAGAGGUUAUCCGCUCACCGAGAUCGGAAGAGCACACGU | 29.2 ± 3.5
target 1 U8C,A16U (mixed) RNA 1: CACCCGUGCAAAAAUGCAGGGGUCUAAAACUGAGCGGAUAACCUCUCUAUGG RNA 2: GGGAAUGGAUCCACAUCUACGAAUUCGUACCAUAGUGAGGUUACCCGCUCACCGAGAUCGGAAGAGCACACGU | 59 ± 8
target 1 C2A,A20C (mixed) RNA 1: CACCCGUGCAAAAAUGCAGGGGUCUAAAACUGAGCGGAUAACCUCUCUAUGG RNA 2: GGGAAUGGAUCCACAUCUACGAAUUCGUACCCUAGAGAGGUUAUCCGCUAACCGAGAUCGGAAGAGCACACGU | 36 ± 4
target 1 insA 3' of 22,insA 3' of 7 (mixed) RNA 1: CACCCGUGCAAAAAUGCAGGGGUCUAAAACUGAGCGGAUAACCUCUCUAUGG RNA 2: GGGAAUGGAUCCACAUCUACGAAUUCGUACACAUAGAGAGGUUAUCACGCUCACCGAGAUCGGAAGAGCACACGU | 8 ± 0.6
target 1 C6A,C21A (mixed) RNA 1: CACCCGUGCAAAAAUGCAGGGGUCUAAAACUGAGCGGAUAACCUCUCUAUGG RNA 2: GGGAAUGGAUCCACAUCUACGAAUUCGUACAAUAGAGAGGUUAUCAGCUCACCGAGAUCGGAAGAGCACACGU | 23.5 ± 1.7
